Tests used:
[1] = target: human folate receptor 1 (FOLR1) (human)
[2] = target: human folate receptor 1 (FOLR1) (human); remark: listed apart in the source
[3] = target: human folate receptor 1 (FOLR1) (human); remark: listed apart in the source

| Binder | IC50, nM (n = 3), Ab-based; in vitro cytotoxicity on IGROV-1 cells [2] [nM] | IC50, nM (n = 3), Ab-based; in vitro cytotoxicity on JEG-3 cells [2] [nM] | also measured |
| --- | --- | --- | --- |
| huMov19 (antibody, V domains shown) VH: QVQLVQSGAEVVKPGASVKISCKASGYTFTGYFMNWVKQSPGQSLEWIGRIHPYDGDTFYNQKFQGKATLTVDKSSNTAHMELLSLTSEDFAVYYCTRYDGSRAMDYWGQGTTVTVSS VL: DIVLTQSPLSLAVSLGQPAIISCKASQSVSFAGTSLMHWYHQKPGQQPRLLIYRASNLEAGVPDRFSGSGSKTDFTLNISPVEAEDAATYYCQQSREYPYTFGGGTKLEIKR |  |  | ADCC, LDH release, percent specific lysis of IGROV-1 cells with human NK effector cells [1]: 30%; EC50 of ADCC activity on IGROV-1 cells [1]: 0.2 ng/mL |
| huMov19-SMCC-DM1 (antibody, V domains shown, maytansinoid DM1 linked to the antibody through the SMCC linker, 3.5-4 DM1 per antibody; attachment residues not stated) VH: QVQLVQSGAEVVKPGASVKISCKASGYTFTGYFMNWVKQSPGQSLEWIGRIHPYDGDTFYNQKFQGKATLTVDKSSNTAHMELLSLTSEDFAVYYCTRYDGSRAMDYWGQGTTVTVSS VL: DIVLTQSPLSLAVSLGQPAIISCKASQSVSFAGTSLMHWYHQKPGQQPRLLIYRASNLEAGVPDRFSGSGSKTDFTLNISPVEAEDAATYYCQQSREYPYTFGGGTKLEIKR | 1 | 20 | IC50, nM (n = 3), Ab-based; in vitro cytotoxicity on KB cells [2]: 0.1 nM; huAb-smcc-DM1 activity on KB in vitro [3]: 0.1 nM |
| huMov19-sulfo-SPDB-DM4 (antibody, V domains shown, maytansinoid DM4 linked to the antibody through the sulfo-SPDB linker, 3.5-4 DM4 per antibody; attachment residues not stated) VH: QVQLVQSGAEVVKPGASVKISCKASGYTFTGYFMNWVKQSPGQSLEWIGRIHPYDGDTFYNQKFQGKATLTVDKSSNTAHMELLSLTSEDFAVYYCTRYDGSRAMDYWGQGTTVTVSS VL: DIVLTQSPLSLAVSLGQPAIISCKASQSVSFAGTSLMHWYHQKPGQQPRLLIYRASNLEAGVPDRFSGSGSKTDFTLTISPVEAEDAATYYCQQSREYPYTFGGGTKLEIKR | 0.3 |  |  |
| huMov19-SPDB-DM4 (antibody, V domains shown, maytansinoid DM4 linked to the antibody through the SPDB linker, 3.5-4 DM4 per antibody; attachment residues not stated) VH: QVQLVQSGAEVVKPGASVKISCKASGYTFTGYFMNWVKQSPGQSLEWIGRIHPYDGDTFYNQKFQGKATLTVDKSSNTAHMELLSLTSEDFAVYYCTRYDGSRAMDYWGQGTTVTVSS VL: DIVLTQSPLSLAVSLGQPAIISCKASQSVSFAGTSLMHWYHQKPGQQPRLLIYRASNLEAGVPDRFSGSGSKTDFTLTISPVEAEDAATYYCQQSREYPYTFGGGTKLEIKR |  | 0.2 |  |

Reference: patent US20120009181A1
